From patent publication US20200308299A1, “ANTI-GPC-1 ANTIBODY” (National University Corporation Kochi University, priority 2017, published 2020)

What was measured:
DU145 cells = assay: ADC assay combining anti-GPC-1 antibody and MMAF binding secondary antibody in DU145 cells; format: cell-based; conditions: 3 days; for EC50 values against DU145 cells: primary antibody plus MMAF secondary antibody
Procedure: 2000 DU145 cells were added to a 96-well plate at 80 μl. The cells were cultured overnight at 37° C. in a 5% CO2 incubator. The next day, 10 μl each of anticancer agent binding secondary antibody (2 μg/ml) and primary antibody concentrated 10-fold relative to the final concentration was added to each well, so that the total amount was 100 μl. The cells were cultured for 3 days at 37° C. in a 5% CO2 incubator. The cell viability was measured by using a CellTiter-Glo Luminescent Cell Viability Assay reagent to detect the amount of ATP. RPMI1640+10% FBS+1% PS was used as the medium. The final concentrations of the primary antibodies were […]. 2 μg/ml of Fab-aMFc-CL-MMAF (model number AM202AF-50, Moradec) was used as the secondary antibody. The EC50 value was analyzed with GraphPad Prism 6. The same experiment was conducted using 4000 MDA-MB231 cells as the control.

TE14 cells = assay: ADC assay combining anti-GPC-1 antibody and MMAF binding secondary antibody, TE14 cells; format: cell-based; conditions: primary antibody plus MMAF secondary antibody
Procedure: FIG. 1 depicts a schematic diagram of an ADC used in an assay. This Example used a secondary antibody (MORADEC) to the anti-GPC1 antibody made in Example 1, to which an anticancer agent (MMAF) was bound via a linker.
2000 TE14 cells were added to a 96-well plate at 80 μl. The cells were cultured overnight at 37° C. in a 5% CO2 incubator. The next day, 10 μl of an anticancer agent bound secondary antibody and 10 μl of a primary antibody concentrated 10-fold relative to the final concentration was added to each well, so that the total amount was 100 μl. The cells were cultured for 6 days at 37° C. in a 5% CO2 incubator. The cell viability was measured by using a CellTiter-Glo Luminescent Cell Viability Assay reagent to detect the amount of ATP. RPMI1640+10% FBS+1% PS was used as the medium. The final concentrations of the primary antibody were 0, 0.004, 0.0156, 0.0625, 0.25, and 1.0 nM. 2 μg/ml of Fab-aMFc-CL-MMAF (model number: AM202AF-50, Moradec) was used as the secondary antibody.

Row | Molecule | EC50 values against DU145 cells (DU145 cells) | EC50 values against TE14 cells (TE14 cells) | growth suppressing effect against DU145 cells (DU145 cells; primary antibody plus MMAF secondary antibody 2 μg/ml)
1 | clone 01a026: anti-human Glypican-1 antibody, heavy chain SEQ ID NO: 146, light chain SEQ ID NO: 148 (antibody) heavy: MKHLWFFLLLVAAPRWVLSQVHLQQSGAELVRPGTSVKMSCKAAGYTFTNYWIGWVKQRPGHGLEWIGDIYPGGGYTHYNEKFKGKATLTADTSSSTAYMQLSSLTSEDSAIYYCARERVYYDGSRFFDVWGAGTTVTVSSAKTTAPSVYPLAPVCGDTTGSSVTLGCLVKGYFPEPVTLTWNSGSLSSGVHTFPAVLQSDLYTLSSSVTVTSSTWPSQSITCNVAHPASSTKVDKKIEPRGPTIKPCPPCKCPAPNLLGGPSVFIFPPKIKDVLMISLSPIVTCVVVDVSEDDPDVQISWFVNNVEVHTAQTQTHREDYNSTLRVVSALPIQHQDWMSGKEFKCKVNNKDLPAPIERTISKPKGSVRAPQVYVLPPPEEEMTKKQVTLTCMVTDFMPEDIYVEWTNNGKTELNYKNTEPVLDSDGSYFMYSKLRVEKKNWVERNSYSCSVVHEGLHNHHTTKSFSRTPGK light: MRLLAQLLGLLMLWVPGSSGDIVMSQSPKFLPVSAGDRVTMTCKASQSVGNNVAWYQQKPGQSPKLLIYYASNRYTGVPDRFTGSGSGTDFTFTISSVQVEDLAVYFCQQHYSSPWTFGGGTKLEIKRADAAPTVSIFPPSSEQLTSGGASVVCFLNNFYPKDINVKWKIDGSERQNGVLNSWTDQDSKDSTYSMSSTLTLTKDEYERHNSYTCEATHKTSTSPIVKSFNRNEC | excellent EC50 values | excellent EC50 values | –
2 | clone 01a002: anti-human Glypican-1 antibody, heavy chain SEQ ID NO: 126, light chain SEQ ID NO: 128 (antibody) heavy: MKHLWFFLLLVAAPRWVLSEVQLQQSGPELVKPGASVKISCKSSGYSFTRYYMHWVKHSPEKSLEWIGEINPSTGDTTYNQKFKAKATLTVDKSSSTAYMQLKSLTSEDSAVYYCAREKRDDGVLAYWGQGTLVTVSSAKTTAPSVYPLAPVCGDTTGSSVTLGCLVKGYFPEPVTLTWNSGSLSSGVHTFPAVLQSDLYTLSSSVTVTSSTWPSQSITCNVAHPASSTKVDKKIEPRGPTIKPCPPCKCPAPNLLGGPSVFIFPPKIKDVLMISLSPIVTCVVVDVSEDDPDVQISWFVNNVEVHTAQTQTHREDYNSTLRVVSALPIQHQDWMSGKEFKCKVNNKDLPAPIERTISKPKGSVRAPQVYVLPPPEEEMTKKQVTLTCMVTDFMPEDIYVEWTNNGKTELNYKNTEPVLDSDGSYFMYSKLRVEKKNWVERNSYSCSVVHEGLHNHHTTKSFSRTPGK light: MRLLAQLLGLLMLWVPGSSGDIQMTQSPKFLPVSAGDRVTMTCKASQSVGNNVAWYQQKPGQSPKLLIYYASNRYTGVPDRFTGSGSGTDFTFTISSVQVEDLAVYFCQQHYSSPLTFGAGTKLELKRADAAPTVSIFPPSSEQLTSGGASVVCFLNNFYPKDINVKWKIDGSERQNGVLNSWTDQDSKDSTYSMSSTLTLTKDEYERHNSYTCEATHKTSTSPIVKSFNRNEC | excellent EC50 values | excellent EC50 values | high growth suppressing effect
3 | clone 01a009: anti-human Glypican-1 antibody, heavy chain SEQ ID NO: 150, light chain SEQ ID NO: 152 (antibody) heavy: MKHLWFFLLLVAAPRWVLSEVQLQQSGPELVKPGASVEISCKASGYSFTGYFMNWVKQSQGKSLEWIGRINPDNGDIFYNQKFKGKATLTVDKSSSTAHMELRSLTSEDSAVYYCARSWNWYFDVWGAGTTVTVSSAKTTAPSVYPLAPVCGDTTGSSVTLGCLVKGYFPEPVTLTWNSGSLSSGVHTFPAVLQSDLYTLSSSVTVTSSTWPSQSITCNVAHPASSTKVDKKIEPRGPTIKPCPPCKCPAPNLLGGPSVFIFPPKIKDVLMISLSPIVTCVVVDVSEDDPDVQISWFVNNVEVHTAQTQTHREDYNSTLRVVSALPIQHQDWMSGKEFKCKVNNKDLPAPIERTISKPKGSVRAPQVYVLPPPEEEMTKKQVTLTCMVTDFMPEDIYVEWTNNGKTELNYKNTEPVLDSDGSYFMYSKLRVEKKNWVERNSYSCSVVHEGLHNHHTTKSFSRTPGK light: MRLLAQLLGLLMLWVPGSSGDIQMTQSPASLSASVGETVTITCRASENIYSYLAWYQQKQGKSPQLLVYNAKTLAEGVPSRFSGSGSGTQFSLKINSLQPEDFGSYYCQHHYGTPYTFGSGTKLEIKRADAAPTVSIFPPSSEQLTSGGASVVCFLNNFYPKDINVKWKIDGSERQNGVLNSWTDQDSKDSTYSMSSTLTLTKDEYERHNSYTCEATHKTSTSPIVKSFNRNEC | excellent EC50 values | excellent EC50 values | –
4 | clone 01a016: anti-human Glypican-1 antibody, heavy chain SEQ ID NO: 134, light chain SEQ ID NO: 136 (antibody) heavy: MKHLWFFLLLVAAPRWVLSQVHLQQSGPELVKPGASVKISCKASGYTFTDYYINWVKQKPGQGLEWIGYIDPYNDGSKYNEKFKGKATLTSDKSSSTAYMELSSLTSEDSAVYYCARTPYYSFYSYGFYFDYWGQGTTLTVSSAKTTAPSVYPLAPVCGDTTGSSVTLGCLVKGYFPEPVTLTWNSGSLSSGVHTFPAVLQSDLYTLSSSVTVTSSTWPSQSITCNVAHPASSTKVDKKIEPRGPTIKPCPPCKCPAPNLLGGPSVFIFPPKIKDVLMISLSPIVTCVVVDVSEDDPDVQISWFVNNVEVHTAQTQTHREDYNSTLRVVSALPIQHQDWMSGKEFKCKVNNKDLPAPIERTISKPKGSVRAPQVYVLPPPEEEMTKKQVTLTCMVTDFMPEDIYVEWTNNGKTELNYKNTEPVLDSDGSYFMYSKLRVEKKNWVERNSYSCSVVHEGLHNHHTTKSFSRTPGK light: MRLLAQLLGLLMLWVPGSSGDIVLTQSPASLAVSLGQRATISCRASKSVSTSSYSYMHWYQQKPGQPPKLLIKYASYLESGVPARFSGSGSGTDFTLNIHPVEEEDAATYYCQHSREFPLTFGAGTKLELKRADAAPTVSIFPPSSEQLTSGGASVVCFLNNFYPKDINVKWKIDGSERQNGVLNSWTDQDSKDSTYSMSSTLTLTKDEYERHNSYTCEATHKTSTSPIVKSFNRNEC | excellent EC50 values | excellent EC50 values | –

Further lines, with some results ahead:

Row | EC50 values against DU145 cells (DU145 cells) | EC50 values against TE14 cells (TE14 cells) | Molecule | growth suppressing effect against DU145 cells (DU145 cells; primary antibody plus MMAF secondary antibody 2 μg/ml)
5 | excellent EC50 values | excellent EC50 values | clone 4: anti-Glypican-1 antibody, heavy chain SEQ ID NO: 198, light chain SEQ ID NO: 200; sequence from WO 2015/098112 (antibody) heavy: AVTLDESGGGLQTPGRALSLVCKASGFTFSRYAMYWVRQAPGKGLEFVAGIGNTGRYTGYGSAVKGRATISRDSGQSTVRLQLNNLRAEDTGNYYCAKSVSPYCCDAADIDAWGHGTEVIVSS light: ASTQPSSVSANPGETVKITCSGGSSGYAYGWYQQKSPGSAPVTLLYSNNNRPSDIPSRFSGSKSGSTATLTITGVQAEDEAVYFCGSVDSSSYAGIFGAGTTLTVL | –
6 | excellent EC50 values | excellent EC50 values | clone 01a030: anti-human Glypican-1 antibody, heavy chain SEQ ID NO: 154, light chain SEQ ID NO: 156 (antibody) heavy: MKHLWFFLLLVAAPRWVLSQVQLQQSGAELVRPGTSVKMSCKAAGYTFTNYWIGWVKQRPGHGLEWIGDIYPGGGYTHYNEKFKGKATLTADTSSSTAYMQLSSLTSEDSAIYYCARERVYYDGSRYFDVWGAGTTVTVSSAKTTAPSVYPLAPVCGDTTGSSVTLGCLVKGYFPEPVTLTWNSGSLSSGVHTFPAVLQSDLYTLSSSVTVTSSTWPSQSITCNVAHPASSTKVDKKIEPRGPTIKPCPPCKCPAPNLLGGPSVFIFPPKIKDVLMISLSPIVTCVVVDVSEDDPDVQISWFVNNVEVHTAQTQTHREDYNSTLRVVSALPIQHQDWMSGKEFKCKVNNKDLPAPIERTISKPKGSVRAPQVYVLPPPEEEMTKKQVTLTCMVTDFMPEDIYVEWTNNGKTELNYKNTEPVLDSDGSYFMYSKLRVEKKNWVERNSYSCSVVHEGLHNHHTTKSFSRTPGK light: MRLLAQLLGLLMLWVPGSSGDIKMTQSPKFLPVSAGDRVTMTCKASQSVGNNVAWYQQKPGQSPKLLIYYASNRYTGVPDRFTGSGSGTDFTFTISSVQVEDLAVYFCQQHYSSPWTFGGGTKLEIKRADAAPTVSIFPPSSEQLTSGGASVVCFLNNFYPKDINVKWKIDGSERQNGVLNSWTDQDSKDSTYSMSSTLTLTKDEYERHNSYTCEATHKTSTSPIVKSFNRNEC | –
